The source of these data is IntAct's records for PubMed 23624502.

B1: Ras-related protein Rab-39A (Mus musculus), Q8BHD0 (parent)
chain: METIWIYQFRLIVIGDSTVGKSCLLHRFTQGRFPGLHSPACDPTVGVDFFSRLLEIEPGKRIKLQLWDTAGQERFRSITRSYYRNSVGGFLVFDITNRRSFEHVKDWLEEAKMHVQPFQIVFLLVGHKCDLASQRQVSREEAERLSTDCGMKYIETSAKDATNVEESFTILTRDIYELIKKGEICIQDGWEGVKSGFVPNTVHSSEEAVKPRKECFC
partner: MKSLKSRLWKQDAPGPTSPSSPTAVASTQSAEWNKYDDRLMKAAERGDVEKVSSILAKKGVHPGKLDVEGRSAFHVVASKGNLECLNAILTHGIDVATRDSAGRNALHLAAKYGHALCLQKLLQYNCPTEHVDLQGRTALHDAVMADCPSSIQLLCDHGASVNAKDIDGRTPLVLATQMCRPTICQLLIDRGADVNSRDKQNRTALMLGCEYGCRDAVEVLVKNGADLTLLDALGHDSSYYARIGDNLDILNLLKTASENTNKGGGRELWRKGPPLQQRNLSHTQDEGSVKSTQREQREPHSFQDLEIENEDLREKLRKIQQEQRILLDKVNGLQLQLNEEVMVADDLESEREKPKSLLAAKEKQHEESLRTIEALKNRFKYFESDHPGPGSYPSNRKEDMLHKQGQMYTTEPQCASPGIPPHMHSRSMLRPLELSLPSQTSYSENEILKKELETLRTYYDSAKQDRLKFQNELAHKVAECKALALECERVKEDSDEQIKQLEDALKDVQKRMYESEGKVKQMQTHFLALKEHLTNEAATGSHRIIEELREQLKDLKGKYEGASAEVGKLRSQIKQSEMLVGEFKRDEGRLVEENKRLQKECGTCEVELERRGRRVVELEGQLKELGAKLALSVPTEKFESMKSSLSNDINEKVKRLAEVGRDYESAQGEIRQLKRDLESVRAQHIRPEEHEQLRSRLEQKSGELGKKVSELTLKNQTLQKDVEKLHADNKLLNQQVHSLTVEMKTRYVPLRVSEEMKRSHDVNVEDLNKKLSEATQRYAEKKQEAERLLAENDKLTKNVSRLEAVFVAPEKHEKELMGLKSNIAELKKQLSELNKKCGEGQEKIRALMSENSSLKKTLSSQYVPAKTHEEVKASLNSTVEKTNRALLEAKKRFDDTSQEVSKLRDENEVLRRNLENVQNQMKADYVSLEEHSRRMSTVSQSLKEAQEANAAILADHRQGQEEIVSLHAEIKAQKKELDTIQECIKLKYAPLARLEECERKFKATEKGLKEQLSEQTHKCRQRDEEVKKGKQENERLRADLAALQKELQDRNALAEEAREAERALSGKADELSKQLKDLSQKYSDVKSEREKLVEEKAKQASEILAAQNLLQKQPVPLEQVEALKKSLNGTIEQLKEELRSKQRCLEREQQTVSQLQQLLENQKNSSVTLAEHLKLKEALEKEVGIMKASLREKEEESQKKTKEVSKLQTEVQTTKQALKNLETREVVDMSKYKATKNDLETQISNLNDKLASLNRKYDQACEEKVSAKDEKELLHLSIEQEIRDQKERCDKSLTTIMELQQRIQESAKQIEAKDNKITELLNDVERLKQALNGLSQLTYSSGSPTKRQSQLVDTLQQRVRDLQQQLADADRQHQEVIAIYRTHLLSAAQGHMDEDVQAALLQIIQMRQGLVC
B2: Ras-related protein Rab-39B (Mus musculus), Q8BHC1 (parent)
chain: MEAIWLYQFRLIVIGDSTVGKSCLIRRFTEGRFAQVSDPTVGVDFFSRLVEIEPGKRIKLQIWDTAGQERFRSITRAYYRNSVGGLLLFDITNRRSFQNVHEWLEETKVHVQPYQIVFVLVGHKCDLDTQRQVTRHEAEKLAAAYGMKYIETSARDAINVEKAFTDLTRDIYELVKRGEITIQEGWEGVKSGFVPNVVHSSEEVIKSERRCLC
partner: B1 partner

Holding throughout (details): with Uaca
The variants in assay [1] derive from B1.
The variants in assay [2] derive from B1. The source holds these as a separate data set.
The variants in assay [3] derive from B2. The source holds these as a separate data set.
In assay [4] the parent is B2. The source holds these as a separate data set.

Take METIWIYQFRLIVIGDSTVGKNCLLHRFTQGRFPGLHSPACDPTVGVDFFSRLLEIEPGKRIKLQLWDTAGQERFRSITRSYYRNSVGGFLVFDITNRRSFEHVKDWLEEAKMHVQPFQIVFLLVGHKCDLASQRQVSREEAERLSTDCGMKYIETSAKDATNVEESFTILTRDIYELIKKGEICIQDGWEGVKSGFVPNTVHSSEEAVKPRKECFC [S22N]: the “effect of a mutation on the interaction” value is “disrupting interaction” with Uaca, Q8CGB3-3 [1] and “decreasing interaction” with Uaca, Q8CGB3-3 [2].
Take MEAIWLYQFRLIVIGDSTVGKNCLIRRFTEGRFAQVSDPTVGVDFFSRLVEIEPGKRIKLQIWDTAGQERFRSITRAYYRNSVGGLLLFDITNRRSFQNVHEWLEETKVHVQPYQIVFVLVGHKCDLDTQRQVTRHEAEKLAAAYGMKYIETSARDAINVEKAFTDLTRDIYELVKRGEITIQEGWEGVKSGFVPNVVHSSEEVIKSERRCLC [S22N]: the “effect of a mutation on the interaction” value with Uaca, Q8CGB3-3 [3] is recorded as “disrupting interaction”; with Uaca, Q8CGB3-3 [4], “decreasing interaction”.
